Where two headings read alike, the source gives them in different places.

Common to all, as to assay: limited trypsin proteolysis
Data set [1] has as its target T1, SpyCas9 (Streptococcus pyogenes, UniProt Q99ZW2 1-1368).
The target of data set [2] is T2, FnoCas9 (Francisella tularensis novicida, UniProt A0Q5Y3 1-1629).
The target of data set [3] is T1, SpyCas9. The source holds these as a separate data set.
Data set [4] addresses T2, FnoCas9. The source holds these as a separate data set.

T1 sequence (Q99ZW2 whole entry): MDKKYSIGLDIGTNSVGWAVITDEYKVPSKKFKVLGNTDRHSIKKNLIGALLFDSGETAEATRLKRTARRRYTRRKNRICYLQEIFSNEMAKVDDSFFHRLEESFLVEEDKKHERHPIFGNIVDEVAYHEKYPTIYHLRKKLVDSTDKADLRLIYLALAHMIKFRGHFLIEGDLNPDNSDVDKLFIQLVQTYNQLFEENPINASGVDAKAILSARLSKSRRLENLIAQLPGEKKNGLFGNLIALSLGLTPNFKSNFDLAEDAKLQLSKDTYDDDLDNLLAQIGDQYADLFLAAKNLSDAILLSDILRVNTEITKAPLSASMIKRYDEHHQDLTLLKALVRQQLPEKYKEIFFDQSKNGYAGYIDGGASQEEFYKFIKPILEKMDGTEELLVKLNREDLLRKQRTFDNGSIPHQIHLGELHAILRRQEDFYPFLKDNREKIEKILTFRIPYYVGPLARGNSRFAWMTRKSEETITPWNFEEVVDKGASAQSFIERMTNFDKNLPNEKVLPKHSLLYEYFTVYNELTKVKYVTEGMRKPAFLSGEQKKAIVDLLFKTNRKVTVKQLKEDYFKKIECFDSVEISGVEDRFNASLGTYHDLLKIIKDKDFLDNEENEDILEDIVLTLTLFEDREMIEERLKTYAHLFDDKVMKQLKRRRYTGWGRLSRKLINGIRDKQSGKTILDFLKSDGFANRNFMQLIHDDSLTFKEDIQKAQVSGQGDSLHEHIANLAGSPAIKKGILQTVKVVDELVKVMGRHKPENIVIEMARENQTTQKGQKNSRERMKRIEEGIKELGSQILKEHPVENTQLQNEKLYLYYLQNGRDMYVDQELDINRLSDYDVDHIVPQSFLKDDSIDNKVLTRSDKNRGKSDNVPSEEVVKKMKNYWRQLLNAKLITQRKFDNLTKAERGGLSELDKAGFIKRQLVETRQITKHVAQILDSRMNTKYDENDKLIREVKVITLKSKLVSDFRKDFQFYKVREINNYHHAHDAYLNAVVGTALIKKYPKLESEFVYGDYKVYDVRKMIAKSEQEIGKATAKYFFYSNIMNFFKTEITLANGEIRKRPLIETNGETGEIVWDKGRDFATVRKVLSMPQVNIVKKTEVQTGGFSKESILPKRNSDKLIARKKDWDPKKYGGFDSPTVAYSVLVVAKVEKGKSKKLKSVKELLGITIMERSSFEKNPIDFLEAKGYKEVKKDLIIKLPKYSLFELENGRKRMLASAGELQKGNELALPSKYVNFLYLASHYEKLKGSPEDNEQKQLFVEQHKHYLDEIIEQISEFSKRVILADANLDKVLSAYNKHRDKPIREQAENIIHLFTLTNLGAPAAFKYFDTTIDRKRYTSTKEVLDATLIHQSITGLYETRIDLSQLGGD
T2 sequence (A0Q5Y3 whole entry): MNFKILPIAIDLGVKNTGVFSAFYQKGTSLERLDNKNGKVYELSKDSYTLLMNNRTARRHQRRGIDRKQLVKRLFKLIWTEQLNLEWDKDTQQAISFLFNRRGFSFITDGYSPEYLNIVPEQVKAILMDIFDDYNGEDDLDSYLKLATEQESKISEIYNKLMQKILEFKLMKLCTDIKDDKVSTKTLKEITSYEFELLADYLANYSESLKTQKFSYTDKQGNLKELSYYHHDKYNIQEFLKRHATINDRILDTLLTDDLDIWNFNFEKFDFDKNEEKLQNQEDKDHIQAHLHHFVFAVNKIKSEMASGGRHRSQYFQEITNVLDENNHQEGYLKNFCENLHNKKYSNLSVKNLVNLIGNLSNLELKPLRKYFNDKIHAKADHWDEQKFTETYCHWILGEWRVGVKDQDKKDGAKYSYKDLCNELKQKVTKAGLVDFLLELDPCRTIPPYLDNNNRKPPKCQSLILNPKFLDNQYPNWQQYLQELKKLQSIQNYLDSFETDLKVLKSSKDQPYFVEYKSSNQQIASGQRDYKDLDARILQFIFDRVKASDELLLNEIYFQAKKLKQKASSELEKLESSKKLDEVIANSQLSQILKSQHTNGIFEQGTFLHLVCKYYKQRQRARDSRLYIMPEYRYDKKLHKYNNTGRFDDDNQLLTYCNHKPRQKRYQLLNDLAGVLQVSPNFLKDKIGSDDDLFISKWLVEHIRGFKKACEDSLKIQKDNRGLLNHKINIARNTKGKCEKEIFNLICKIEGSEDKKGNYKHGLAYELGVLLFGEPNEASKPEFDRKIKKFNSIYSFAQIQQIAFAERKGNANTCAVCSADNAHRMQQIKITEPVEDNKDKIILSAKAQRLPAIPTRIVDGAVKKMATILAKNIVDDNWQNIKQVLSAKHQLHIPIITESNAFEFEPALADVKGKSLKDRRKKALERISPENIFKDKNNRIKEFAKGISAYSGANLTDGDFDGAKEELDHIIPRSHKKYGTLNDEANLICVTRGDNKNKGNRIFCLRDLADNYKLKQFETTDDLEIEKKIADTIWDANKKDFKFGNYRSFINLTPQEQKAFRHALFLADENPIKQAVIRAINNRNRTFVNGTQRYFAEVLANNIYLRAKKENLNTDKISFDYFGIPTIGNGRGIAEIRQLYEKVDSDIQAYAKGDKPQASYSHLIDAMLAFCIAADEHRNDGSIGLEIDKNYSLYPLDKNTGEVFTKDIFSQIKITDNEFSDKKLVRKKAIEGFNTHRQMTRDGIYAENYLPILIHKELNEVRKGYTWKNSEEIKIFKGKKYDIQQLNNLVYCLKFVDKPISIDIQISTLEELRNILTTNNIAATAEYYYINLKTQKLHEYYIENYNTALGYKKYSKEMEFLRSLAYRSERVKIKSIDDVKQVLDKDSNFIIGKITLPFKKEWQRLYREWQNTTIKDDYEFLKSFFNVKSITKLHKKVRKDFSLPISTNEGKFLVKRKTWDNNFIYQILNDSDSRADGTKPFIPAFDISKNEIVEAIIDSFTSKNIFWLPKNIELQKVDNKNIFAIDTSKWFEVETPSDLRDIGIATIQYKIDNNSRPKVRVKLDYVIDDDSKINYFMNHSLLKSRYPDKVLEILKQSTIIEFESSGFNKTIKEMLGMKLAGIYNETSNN

B1: SpyCas9 sgRNA (structured_RNA)
RNA: GGGAUUUCUUCUUGCGCUUUUUGUUUUAGAGCUAUGCUGUUUUGGAAACAAAACAGCAUAGCAAGUUAAAAUAAGGCUAGUCCGUUAUCAACUUGAAAAAGUGGCACCGAGUCGGUGCUUUUUU
Turning to B1, the binding result in the data set with SpyCas9 [1] was “binds”.

B2: 60-mer ss oligo (197-FR) (ssDNA)
DNA: AGCAGATTGTACTGAGAGTGCACCATATGCGGTGTGAAATACCGCACAGATGCGTAAGGA
Consider B2, for which the binding result in the data set with FnoCas9 [2] and in the data set with SpyCas9 [3] was “binds” in each case.

B3: FnoCas9 crRNA-tracrRNA (structured_RNA)
RNA 1: GGGAUAACUCAAUUUGUAAAAAAGUUUCAGUUGCUGAAUUAUUUGGUAAAC
RNA 2: GGGCCAAAUAAUUAAUGCUCUGUAAUCAUUUAAAAGUAUUUUGAACGGACCUCUGUUUGACACGUCUGAAUAACUAAAAAGCAAAAAUUUGCCACCUAAGUGGCUUUUUUU
Regarding B3, the binding result with FnoCas9 [4] is on record as “binds”.

These data come from article PMC5760271.
